The data set concerns newly diagnosed CD30-positive mature T- and NK-cell neoplasms, including sALCL. Kind of data set: Phase 1 study SGN35-011: brentuximab vedotin with CHOP or CHP chemotherapy. It counts as in vivo, human. The conditions noted are these: given concomitantly with CHP. The source says:
The clinical safety and activity of brentuximab vedotin administered sequentially and concurrently with multiagent chemotherapy were previously evaluated in a phase 1 study in patients with newly diagnosed CD30-positive mature T- and NK-cell neoplasms, including sALCL (Study SGN35-011). This phase 1 study was implemented to determine the safety and activity of sequential and combination frontline treatment approaches of brentuximab vedotin with CHOP or CHP chemotherapy. The maximum tolerated dose of brentuximab vedotin was 1.8 mg/kg given concomitantly with CHP. At an interim analysis in this study (data presented at the T-Cell Lymphoma Forum 2012), 20 patients in this study had been treated with brentuximab vedotin 1.2 or 1.8 mg/kg given concomitantly with CHP for 6 cycles, followed by continued brentuximab vedotin every 3 weeks for up to 10 additional cycles for responding patients.

For brentuximab vedotin, the maximum tolerated dose was 1.8 mg/kg.
